{"source": "patent EP2843044A1", "about": "“Improved variant of D-psicose 3-epimerase and uses thereof” (Roquette Frères, priority 2013, dated 2015)", "proteins": {"B1": {"name": "D-psicose 3-epimerase (DPEase) from Clostridium cellulolyticum, variant G211S, SEQ ID No 4 (Ruminiclostridium cellulolyticum H10; G211S) (protein)", "chain": "MKHGIYYAYWEQEWEADYKYYIEKVAKLGFDILEIAASPLPFYSDIQINELKACAHGNGITLTVGHGPSAEQNLSSPDPDIRKNAKAFYTDLLKRLYKLDVHLIGGALYSYWPIDYTKTIDKKGDWERSVESVREVAKVAEACGVDFCLEVLNRFENYLINTAQEGVDFVKQVDHNNVKVMLDTFHMNIEEDSIGGAIRTAGSYLGHLHTSECNRKVPGRGRIPWVEIGEALADIGYNGSVVMEPFVRMGGTVGSNIKVWRDISNGADEKMLDREAQAALDFSRYVLECHKHS", "notes": "made in house; host or cells: Bacillus subtilis WB600 (pMA5)"}, "B2": {"name": "D-psicose 3-epimerase (DPEase) from Clostridium cellulolyticum, variant G211D (Ruminiclostridium cellulolyticum H10; G211D) (protein)", "chain": "B1 chain with S211D", "notes": "as for B1"}, "B3": {"name": "D-psicose 3-epimerase (DPEase) from Clostridium cellulolyticum, variant G211W (Ruminiclostridium cellulolyticum H10; G211W) (protein)", "chain": "B1 chain with S211W", "notes": "as for B1"}, "B4": {"name": "D-psicose 3-epimerase (DPEase) from Clostridium cellulolyticum, variant G211L (Ruminiclostridium cellulolyticum H10; G211L) (protein)", "chain": "B1 chain with S211L", "notes": "as for B1"}, "B5": {"name": "D-psicose 3-epimerase (DPEase) from Clostridium cellulolyticum, variant G211R (Ruminiclostridium cellulolyticum H10; G211R) (protein)", "chain": "B1 chain with S211R", "notes": "made in house"}, "B6": {"name": "D-psicose 3-epimerase (DPEase) from Clostridium cellulolyticum, wild type, SEQ ID No 2 (Ruminiclostridium cellulolyticum H10) (protein)", "chain": "B1 chain with S211G", "notes": "as for B1"}, "B7": {"name": "D-psicose 3-epimerase (DPEase) from Clostridium cellulolyticum, variant G211A (Ruminiclostridium cellulolyticum H10; G211A) (protein)", "chain": "B1 chain with S211A", "notes": "as for B1"}}, "note": "Changes are numbered by the printed parent chain. Numbers in names are those of the source.", "data": [{"substrate": "O=C(CO)[C@@H](O)[C@H](O)[C@H](O)CO", "assay": "Determination of kinetic parameters of DPEase (HPLC assay of D-psicose formed)", "type": "biochemical, Clostridium cellulolyticum", "conditions": "other: 50 mM Tris-HCl buffer (pH 8.0), 0.1mM Co^2+, 5-200mM substrate, 55 °C", "description": "Kinetic parameters of DPEase variants were determined in 50 mM Tris-HCl buffer (pH 8.0) containing 0.1mM Co^2+ and 5-200mM substrate for reaction at 55 °C. The enzyme reactions were stopped after 10 min by boiling, and the amount of D-psicose was determined by the HPLC assay. Kinetic parameters, such as the Michaelis-Menten constant (Km) and turnover number (kcat) values for substrates, were obtained using the Lineweaver-Burk equation and quantification of enzyme concentration.\nThe concentrations of D-fructose and D-psicose were analyzed by HPLC equipped with a refractive index detector and a Ca^2+-carbohydrate column (Waters Sugar-Pak 1, Waters Corp., Milford, MA), which was eluted with water at 85 °C and 0.4 mL/min. Protein concentration was determined according to the method of Bradford using bovine serum albumin as a standard. SDS-PAGE was carried out according to the method of Laemmli. Gels (12% w/v polyacrylamide) were stained with Coomassie Brilliant Blue and destained with an aqueous mixture of 10% (v/v) methanol/10% (v/v) acetic acid. Table 1: Enzyme properties and kinetic parameters of the wild-type and mutant enzymes of DPEase from C. cellulolyticum for substrate D-psicose", "units": {"kcat/Km": "mM^-1 min ^-1"}, "values": [{"protein": "B1", "kcat/Km": 150.6}, {"protein": "B2", "kcat/Km": 86.7}, {"protein": "B3", "kcat/Km": 68.1}, {"protein": "B4", "kcat/Km": 73.2}, {"protein": "B5", "kcat/Km": 26.5}, {"protein": "B6", "kcat/Km": 62.7}, {"protein": "B7", "kcat/Km": 9.8}]}]}
